What was measured:
TMR-α-casein [1] = assay: On-chip protease assay by fluorescence polarization of TMR-α-casein substrate, lab-on-a-chip with optical chopper; assay type: biochemical; details: 1 μM TMR-α-casein final in channel; reaction time 5.1 seconds; FIGS. 10A-10D
Description: Next, the protease assays were carried out using an apparatus for measuring fluorescence polarization including the optical chopper of FIG. 2 on a lab-on-a-chip of glass composed of a channel 1 C1, in which substrates or enzymes flowed, and a channel 2 C2, in which the reaction occurred, the channels having a depth of 12 μm and a width of 79 μm as depicted in FIG. 8.
For on-chip protease assays, the substrates and the enzymes should mix completely prior to the enzyme reactions. […] […] Therefore, the reaction time was confirmed to be 5.1 seconds after mixing of the substrate with the enzymes.
Subsequently, to carry out the protease assays in the lab-on-a-chip,2 μM of TMR-α-casein (the final concentration in the channel was 1 μM) was placed in a substrate reservoir and the respective proteases were placed in an enzyme reservoir at increasing concentrations in the same manner as the comparative example. Then, the two substances were allowed to flow into a channel 2 C2, a main channel, to cause a reaction. Fluorescence polarization FP was then measured at the detection point, positioned 32 mm away from the junction, from which the substrates and the enzymes flowed in.
Again, it was noted that fluorescence polarization values plateaued when the concentration of the enzymes reached at the point generating a specific rate or more.

TMR-α-casein [2] = assay: Protease assay by fluorescence polarization of TMR-α-casein substrate, commercial fluorescence spectrometer; assay type: biochemical; details: time course, varying enzyme concentrations (unit/mL); FIGS. 9A-9D
Description: Changes of fluorescence polarization FP were measured using the method and apparatus for measuring fluorescence polarization of the present invention, employing TMR-α-casein as a substrate, composed of TMR as a fluorescent probe and α-casein, a universal protein substrate reacted with various proteases.
First, TMR-α-casein, a fluorescently labeled substrate for proteases, was prepared by applying one of the well-known methods [Analytical Biochemistry (,1996) 243, 1-7] as follows.
10 mg/mL of α-casein (sigma) and 5 mg/mL of 5-carboxytetramethylrhodamine succinimidyl ester were mixed in 0.1 M sodium bicarbonate buffer solution (pH 9.0) for reaction at room temperature for two and a half hours. The resulting TMR-α-casein was purified by passing the reaction mixture over a HiTrap desalting column (Sephadex G-25 Amersham Bioscience), and used after quantitation of the amounts of protein and fluorescence.
Proteinase K, trypsin, papain and elastase were used as proteases to react at increasing concentrations. First, as a comparative example, the process that the TMR-α-casein substrate was degraded by the proteases was analyzed using a commercial fluorescence spectrometer (Perkin Elmer). […]

Row | change of fluorescence polarization values of TMR-α-casein with enzyme concentration (TMR-α-casein [1]) | Molecule | change of fluorescence polarization values of TMR-α-casein as the reaction proceeded (TMR-α-casein [2])
1 | decreased with increasing concentrations | proteinase K: protease reacted with TMR-α-casein substrate (protein, UniProt P06873 106-384, looked up) Proteinase K: AAQTNAPWGLARISSTSPGTSTYYYDESAGQGSCVYVIDTGIEASHPEFEGRAQMVKTYYYSSRDGNGHGTHCAGTVGSRTYGVAKKTQLFGVKVLDDNGSGQYSTIIAGMDFVASDKNNRNCPKGVVASLSLGGGYSSSVNSAAARLQSSGVMVAVAAGNNNADARNYSPASEPSVCTVGASDRYDRRSSFSNYGSVLDIFGPGTSILSTWIGGSTRSISGTSMATPHVAGLAAYLMTLGKTTAASACRYIADTANKGDLSNIPFGTVNLLAYNNYQA | decreased
2 | decreased with increasing concentrations | papain: protease reacted with TMR-α-casein substrate (protein, UniProt P00784 134-345, looked up) Papain: IPEYVDWRQKGAVTPVKNQGSCGSCWAFSAVVTIEGIIKIRTGNLNEYSEQELLDCDRRSYGCNGGYPWSALQLVAQYGIHYRNTYPYEGVQRYCRSREKGPYAAKTDGVRQVQPYNEGALLYSIANQPVSVVLEAAGKDFQLYRGGIFVGPCGNKVDHAVAAVGYGPNYILIKNSWGTGWGENGYIRIKRGTGNSYGVCGLYTSSFYPVKN | decreased
